From patent publication US20140120091A1 (University of Washington, published 2014)
Substitutions are numbered along the chain they refer to. In names and notes the source's numbering stands. One block for each binder: values may come before it.

Tests used:
[1] = target: T1, recombinant human CD40L (Peprotech, Catalog #310-02) (human, UniProt P29965 113-261); assay: CD40L antigen binding ELISA normalised to IgG sandwich ELISA, COS supernatants
T1 construct: Bought reagent; also called rCD40L; immobilized CD40L
T1 sequence (looked up): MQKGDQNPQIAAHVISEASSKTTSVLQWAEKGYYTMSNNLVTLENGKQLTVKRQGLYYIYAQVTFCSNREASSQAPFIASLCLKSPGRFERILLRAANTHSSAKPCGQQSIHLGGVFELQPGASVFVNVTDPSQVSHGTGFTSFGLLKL
Protocol: Coated plates were washed twice in wash buffer: (PBS/0.05% Tween-20/0.01% Kathon), and blocked overnight at 4° C. in 200 ul/well PBS/2.5% BSA. Blocked plates were washed three times in wash buffer, and serial dilutions of each culture supernatant in (D-PBS, 0.2% BSA) added to successive wells in each plate: (20×, 40×, 80×, and 160× of each supernatant). Supernatant dilutions were incubated overnight at 4° C. Plates were washed three times in wash buffer, then incubated with HRP (horseradish peroxidase) conjugated goat anti-human IgG (Fc specific) (Catalog #109-036-008, Jackson Immunoresearch, West Grove, Pa.) at a 1:7,500 dilution in PBS for 1-2 hours at room temperature. Plates were washed 4-5 times in wash buffer, then 80 ul/well TMB Sureblue peroxidase substrate was added (Catalog #52-00-02, KPL Laboratories, Gaithersburg, Md.). Color was allowed to develop for 5-15 minutes, and reactions stopped by addition of 80 ul/well 1 N HCL. Plates were read using a Biotek SYNERGY® 2 (Biotek Instruments, Winooski, Vt.) plate reader at […], and data analyzed with Gen5 v2 software.

[2] = target: T2, recombinant human PCSK9-his6 (AcroBiosystems, Catalog # PC9-H5223) (human, UniProt Q8NBP7 31-692); assay: PCSK9 antigen binding ELISA, fusion protein immobilized, PCSK9-his6 in solution, HRP anti-his6 detection
T2 construct: Bought reagent; also called PCSK9-his6 antigen; PCSK9-his 6 antigen; not shown: his6 tag
T2 sequence (Q8NBP7 31-692 limits assumed): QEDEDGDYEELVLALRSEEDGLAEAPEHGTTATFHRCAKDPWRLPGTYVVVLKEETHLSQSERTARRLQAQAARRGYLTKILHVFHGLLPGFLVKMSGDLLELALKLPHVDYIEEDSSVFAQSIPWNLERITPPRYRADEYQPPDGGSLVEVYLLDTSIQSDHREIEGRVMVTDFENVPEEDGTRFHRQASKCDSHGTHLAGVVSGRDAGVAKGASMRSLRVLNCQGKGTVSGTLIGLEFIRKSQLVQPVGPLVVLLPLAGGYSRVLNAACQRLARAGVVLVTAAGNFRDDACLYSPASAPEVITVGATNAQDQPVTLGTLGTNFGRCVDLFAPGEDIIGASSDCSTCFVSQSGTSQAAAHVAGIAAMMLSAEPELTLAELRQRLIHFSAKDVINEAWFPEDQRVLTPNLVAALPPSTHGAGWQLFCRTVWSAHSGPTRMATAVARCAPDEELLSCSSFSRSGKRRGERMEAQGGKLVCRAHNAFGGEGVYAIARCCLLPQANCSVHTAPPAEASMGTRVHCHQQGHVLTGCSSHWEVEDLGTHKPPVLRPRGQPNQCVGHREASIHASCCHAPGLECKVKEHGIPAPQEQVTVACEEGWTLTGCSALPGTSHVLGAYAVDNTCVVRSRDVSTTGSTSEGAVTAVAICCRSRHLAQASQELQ

[3] = target: T3, human CD40 ligand (CD40L, CD154) expressed on human Jurkat cells (human, UniProt P29965 1-261); assay: flow cytometry, serial dilutions of purified fusion protein on Jurkat cells, AF647 goat anti-human IgG detection
T3 construct: whole, on cells; also called CD40L on Jurkat cells; CD154 (CD40L) expressed on the surface of Jurkat cells
T3 sequence (looked up): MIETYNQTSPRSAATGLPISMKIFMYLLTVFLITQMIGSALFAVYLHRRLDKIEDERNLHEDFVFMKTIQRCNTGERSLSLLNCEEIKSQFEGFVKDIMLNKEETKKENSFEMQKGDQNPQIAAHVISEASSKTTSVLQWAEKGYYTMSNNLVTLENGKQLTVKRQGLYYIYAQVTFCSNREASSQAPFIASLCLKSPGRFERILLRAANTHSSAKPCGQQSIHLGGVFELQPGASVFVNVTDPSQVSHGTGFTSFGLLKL

- binding result [1]: binds
B1: CD40 EC-Ig fusion protein, mutant E64S K81H L121P (Fc fusion)
chain: EPPTACREKQYLINSQCCSLCQPGQKLVSDCTEFTETECLPCGSSEFLDTWNRETHCHQHHYCDPNLGLRVQQKGTSETDTICTCEEGWHCTSEACESCVPHRSCSPGFGVKQIATGVSDTICEPCPVGFFSNVSSAFEKCHPWTSCETKDLVVQQAGTNKTDVVCGP
notes: COS7 culture supernatant; not shown: human IgG Fc tail

- binding result [1]: binds
B2: CD40 EC-Ig fusion protein, mutant E64Y K81T P85Y (Fc fusion)
chain: B1 chain with S44Y, H61T, P65Y, P101L
notes: COS7 culture supernatant; also called triple mutant E64Y K81T P85Y; not shown: human IgG Fc tail

- binding result [2]: no binding
- binding result [3]: binds
B3: hCD40-4s EC-mthIgG (Fc fusion)
chain: EPPTACREKQYLINSQCCSLCQPGQKLVSDCTEFTETECLPCGESEFLDTWNRETHCHQHKYCDPNLGLRVQQKGTSETDTICTCEEGWHCTSEACESCVLHRSCSPGFGVKQIATGVSDTICEPCPVGFFSNVSSAFEKCHPWTSCETKDLVVQQAGTNKTDVVCGPDLSGGGGSGGGGSGGGGSGGGGSTGLEPKSSDKTHTSPPSPAPELLGGSSVFLFPPKPKDTLMISRTPEVTCVVVDVSHEDPEVKFNWYVDGVEVHNAKTKPREEQYNSTYRVVSVLTVLHQDWLNGKEYKCKVSNKALPASIEKTISKAKGQPREPQVYTLPPSRDELTKNQVSLTCLVKGFYPSDIAVEWESNGQPENNYKTTPPVLDSDGSFFLYSKLTVDKSRWQQGNVFSCSVMHEALHNHYTQKSLSLSPGK
notes: also called human (h)CD40-SSSH-mthIgG1; hCD40mthIgG
